The target of one assay is T1, C1r protein (UniProt P00736 18-705).
T1 construct: also called Cir protein
T1 sequence (looked up): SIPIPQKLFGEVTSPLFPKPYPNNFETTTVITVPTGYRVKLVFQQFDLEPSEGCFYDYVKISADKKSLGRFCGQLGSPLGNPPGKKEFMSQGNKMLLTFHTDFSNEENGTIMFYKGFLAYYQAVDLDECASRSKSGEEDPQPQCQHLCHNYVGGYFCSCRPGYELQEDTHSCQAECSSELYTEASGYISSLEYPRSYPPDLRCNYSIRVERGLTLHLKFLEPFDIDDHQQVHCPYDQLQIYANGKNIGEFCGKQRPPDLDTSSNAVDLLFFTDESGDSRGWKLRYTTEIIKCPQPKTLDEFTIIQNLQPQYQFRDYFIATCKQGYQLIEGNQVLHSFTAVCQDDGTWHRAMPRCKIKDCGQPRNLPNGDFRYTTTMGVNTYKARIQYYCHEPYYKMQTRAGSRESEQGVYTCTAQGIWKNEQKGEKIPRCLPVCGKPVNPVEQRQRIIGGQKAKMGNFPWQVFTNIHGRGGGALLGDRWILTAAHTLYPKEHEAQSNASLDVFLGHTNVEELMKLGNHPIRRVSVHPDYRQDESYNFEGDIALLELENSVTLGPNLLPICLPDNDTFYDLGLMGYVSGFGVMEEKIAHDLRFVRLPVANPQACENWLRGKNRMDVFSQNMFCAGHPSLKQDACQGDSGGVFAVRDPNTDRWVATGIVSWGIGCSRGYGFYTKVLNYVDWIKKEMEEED
The assay can be described thus: indirect ELISA, antigen coated at 1 µg/ml, Goat anti-Human IgG-HRP detection, OD 450 nm. As to the method:
In this example, the antigen-binding specificity of the C1s recombinant antibody was analyzed by an indirect ELISA method according to the principle of the specificity detection of the C1s recombinant antibody shown in FIG. 4. An analysis method included the following steps:
200 μL (1 μg/ml) of C1s antigen (single-stranded unactivated C1s protein, double-stranded activated C1s protein, or C1r protein) was added respectively to wells of a microtiter plate, and the microtiter plate was gently shaken to make the antigen cover a well bottom of the microtiter plate. Incubation was performed overnight at 4° C. After washing the plate 3 times with a warm PBS, 200 μL of a blocking solution (10 mM PBS, 1% BSA, 0.1% casein) was added to perform blocking. Incubation was next performed at 37° C. for 1 h. The plate was washed 5 times with PBS. 100 μL of the C1s recombinant antibody was added in each well (an initial concentration of a first well was 10 μg/mL, then diluted down to 7 wells according to a ratio of ¼ gradient to set up duplicate wells), incubation was performed at 37° C. for 1 h. The liquid in the microtiter plate was spin-dried, and the plate was washed with 200 μL of warm PBS 5 times. 100 μL of a diluted secondary antibody (Goat anti-Human IgG-HRP) was added to each well of the microtiter plate. […] An optical density (OD) was read at 450 nm on the microplate reader.

Another assay addresses T2, MASP1 (UniProt P48740 20-699, limits assumed).
T2 sequence (looked up): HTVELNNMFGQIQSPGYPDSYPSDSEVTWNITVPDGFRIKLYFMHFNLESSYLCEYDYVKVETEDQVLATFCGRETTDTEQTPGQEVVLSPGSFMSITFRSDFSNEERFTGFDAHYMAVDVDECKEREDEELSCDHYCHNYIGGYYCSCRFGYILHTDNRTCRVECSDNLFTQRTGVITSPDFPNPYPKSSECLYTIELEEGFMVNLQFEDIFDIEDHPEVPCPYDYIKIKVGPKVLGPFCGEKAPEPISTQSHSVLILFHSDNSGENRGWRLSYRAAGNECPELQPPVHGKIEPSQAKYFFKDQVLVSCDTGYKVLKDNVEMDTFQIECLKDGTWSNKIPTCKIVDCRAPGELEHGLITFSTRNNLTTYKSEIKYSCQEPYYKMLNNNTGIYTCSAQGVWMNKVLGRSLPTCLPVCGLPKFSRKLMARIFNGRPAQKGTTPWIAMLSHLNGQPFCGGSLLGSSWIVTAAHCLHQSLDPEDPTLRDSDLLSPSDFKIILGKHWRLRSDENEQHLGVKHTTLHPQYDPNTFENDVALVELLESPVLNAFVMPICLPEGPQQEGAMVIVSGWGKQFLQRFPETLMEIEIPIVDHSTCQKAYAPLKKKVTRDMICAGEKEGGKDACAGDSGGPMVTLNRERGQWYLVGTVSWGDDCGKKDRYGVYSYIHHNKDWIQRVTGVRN
The assay can be described thus: cell-based or functional assay.

The next assay addresses MASP2 (UniProt O00187 16-686, limits assumed). Description: cell-based or functional assay.
A further assay addresses T3, double-stranded C1r (UniProt P00736 18-705).
T3 sequence (looked up): T1 sequence (looked up)
Description: cell-based or functional assay.

This note sets out measurements from patent publication US20250012721A1 (JIANGSU UNIVERSITY, published 2025).

Where “and” joins values, the source holds several entries; their conditions need not be identical. Equal entries are not always repeated.

MASP2, sequence (O00187 16-686 limits assumed): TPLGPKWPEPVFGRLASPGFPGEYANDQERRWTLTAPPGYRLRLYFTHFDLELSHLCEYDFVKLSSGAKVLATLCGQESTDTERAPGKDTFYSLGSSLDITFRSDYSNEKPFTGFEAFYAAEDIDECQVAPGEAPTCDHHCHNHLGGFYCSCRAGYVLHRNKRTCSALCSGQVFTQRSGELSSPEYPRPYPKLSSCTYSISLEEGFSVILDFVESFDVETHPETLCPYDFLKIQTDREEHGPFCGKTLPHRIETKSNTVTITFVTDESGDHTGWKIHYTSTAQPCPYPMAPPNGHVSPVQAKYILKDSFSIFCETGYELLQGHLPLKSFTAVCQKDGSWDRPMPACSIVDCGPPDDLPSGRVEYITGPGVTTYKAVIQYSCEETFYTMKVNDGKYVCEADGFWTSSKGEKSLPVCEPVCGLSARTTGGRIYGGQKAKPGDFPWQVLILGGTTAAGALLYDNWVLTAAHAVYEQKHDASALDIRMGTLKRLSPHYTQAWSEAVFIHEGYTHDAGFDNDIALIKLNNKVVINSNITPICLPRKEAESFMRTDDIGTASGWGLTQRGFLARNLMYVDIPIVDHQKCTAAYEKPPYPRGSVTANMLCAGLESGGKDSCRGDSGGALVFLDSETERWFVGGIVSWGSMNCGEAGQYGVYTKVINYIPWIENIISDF

B1: C1s recombinant antibody (antibody, human IgG4 S228P, kappa, V domains shown)
VH: EVQLVESGGGLVKPGGSLRLSCAASGFTFSNYAMSWVRQAPGKGLEWVATISSGGSHTYYLDSVKGRFTISRDNSKNTLYLQMNSLRAEDTALYYCARLFTGYAMDYWGQGTLVTVSS
VL: QIVLTQSPATLSLSPGERATMSCTASSSVSSSYLHWYQQKPGKAPKLWIYSTSNLASGVPSRFSGSGSGTDYTLTISSLQPEDFATYYCHQYYRLPPITFGQGTKLEIKR
notes: The summary and claim 1 call the same entries variable regions; Expressed in HEK293T; also called C1s-specific recombinant antibody; recombinant anti-C1s antibody
As to B1, the binding result with C1r protein was “no binding”. For the same molecule, the results for the “Cross reaction rate (%)” value with MASP1, in the assay with MASP2 and with double-stranded C1r were 0.04%, 0.04% and 0.15%, respectively. Further, the Measured concentration is 1.82 pmol/min/µg and 2 µg/mL with MASP1; 1.64 pmol/min/µg and 1.8 µg/mL in the assay with MASP2; 0.91 pmol/min/µg and 1 µg/mL with double-stranded C1r.
